The source of these data is article PMC10200060, “Inhibition of DAMP actions in the tumoral microenvironment using lactoferrin-glycyrrhizin conjugate for glioblastoma therapy” (Biomaterials Research, 2023).

The term Tmax denotes the time at which the peak concentration occurs.

For one series, the system named is U87MG. The series is described as follows: Annexin V/PI apoptosis staining in U87MG. Type of series: cell-based, human. The conditions noted are these: GL equivalent 50 µM, 24 h (control 1.40%). As for the experimental part:
Fig. S10. Non-apoptotic U87MG growth inhibition of Lf-GL. Annexin V-DY-634 / PI apoptosis staining to detect the apoptosis and necrosis in the Control, GL, Lf, and Lf-GL treated group at all GL equivalent concentration of 50 µM for 24 h. However, the cell population of annexin V (+)/PI (+) in the Lf-GL treatment group was 0.28%, which was even lower level to 1.40% in the Control group

A further series has as its system rat aortic rings. The series is described as follows: Aorta ring assay (ex vivo). The settings on record: VEGF-conditioned medium, GL equivalent 200 µM, 14 days. As for the experimental part:
An aorta ring assay was conducted to confirm the anti-angiogenesis effect of Lf-GL ex vivo. A 48-well plate was coated with of Matrigel® (100 μL) and was incubated for 30 min or more in 37℃ incubators. In the meantime, thoracic aortas of 7-week-old male SD rats were excised. Then, the fat layer and outer membrane were removed, and rings approximately 1 mm in length were prepared. The prepared aortic rings were seeded on a coated Matrigel® of 48-well plate and were covered with Matrigel®. (100 μL) Subsequently, the aortic ring was treated with a control (with or without 25 ng mL^−1 of VEGF) or different concentrations of Lf-GL complex. Medium was changed once every two days. Fourteen days after treatment, optical images of sprouting microvessels were obtained using microscopy magnification (× 40 or × 100). Sprouting microvessel area was quantified using Image J and Sigma Plot.
Fig. S14. Significant inhibitory effect of Lf-GL in aortic ring angiogenesis. Optical images of vessel regression in aortic ring with Lf-GL treatment. Aortic ring assay was carried out in 48-well plate coated with Matrigel. VEGF-non treated control represents that aortic ring incubated with normal medium. VEGF-treated control represents that aortic ring incubated with 25 ng mL^-1 VEGF-conditioned medium. […]

A short description of series [1]: In vivo fluorescence tracer image (brain). Set-up: species or system Balb/c mice. The conditions noted are these: FITC-tagged. As for the experimental part:
For the fluorescence tracer images, Balb/c mice were administered either FITC-tagged GL or FITC-tagged Lf-GL at a GL equivalent concentration of 50 mg kg^−1 body weight via tail vein injection. After 1, 10, 30, and 60 min, the experimental mice were sacrificed, and the organs were extracted. The fluorescence signals of FITC-tagged GL or FITC-tagged Lf-GL in organs were imaged using an in vivo imaging system (FOBI, CELLGENTEK, South Korea). The exposure time was fixed to 200 s for analyzing fluorescent signals from tissues. The quantified fluorescence signal of the brain at each time point was measured in terms of intensity units (IU, Intensity Min^−1 Gain^−1).
Fig. S15. Fluorescence tracer images of intravenously injected GL and Lf-GL. Balb/c mice were administered either FITC-tagged GL or FITC-tagged Lf-GL at a GL equivalent concentration of 50 mg kg^-1 body weight via tail vein injection. The fluorescence signals of FITC-tagged GL or FITC-tagged Lf-GL in organs were imaged using an in vivo imaging system (FOBI, CELLGENTEK, South Korea). The exposure time was fixed to 200 sec for analyzing fluorescent signals from tissues. The quantified fluorescence signal of brain at each time point was measured with Intensity Unit (IU, Intensity Min^-1 Gain^-1).

Series [2] is described as follows: GBM targeted-GL by HPLC in brain homogenate. Type of series: in vivo, orthotopic GBM model mice. As for the experimental part: Orthotopic GBM mice model mice were used for quantification of GBM targeting efficacy. The brain tissue was homogenized in deionized water at a 33.3 w/v (%) using a FastPrep-24 5G (MP biomedical, South Korea). The GL were added to pooled brain homogenate to obtain seven-point calibration curves with a range of 10–1000 ng mL^−1. Then, homogenate (50 μL) was mixed with methanol (100 μL). […] Thereafter, supernatants (100 μL) were mixed with mobile phase solution (900 μL), then filtered with a 0.22 μm syringe filter. Samples were collected in a 2 mL HPLC vial (Screw top vial, Waters, USA) and analyzed by HPLC at 254 nm. […] Mice were sacrificed and brain tissues were collected 10 min after the GL and Lf-GL injection. The samples for quantification were also conducted using the same process as GL standard preparation.

In the next series the test system is HMGB1. As to the kind of experiment: Immunofluorescence staining of HMGB1 in GBM tissue. Type of series: in vivo, Balb/c nude mice. The settings on record: GBM mice, daily i.v. GL equivalent 50 mg kg^−1, 14 days (control 15.3 ± 1.7). An excerpt: (§1) After two weeks, mice were sacrificed, and the brains were harvested and fixed with paraformaldehyde (4%). Then, tissue processing was automatically conducted using a Leica TP1020 semi-enclosed Benchtop Tissue Processor (Leica Biosystems, Wetzlar, Hesse, Germany), followed by embedding in paraffin blocks. Paraffin blocks were sliced into 5 μm thick slices using a Leica RM2145 Microtome (Leica Biosystems). Nissl staining was used to stain brain tissue slides with pre-warmed 0.1% Cresyl Violet Stain Solution (Abcam). TUNEL assays were conducted following the manufacturer’s instructions. For immunofluorescence staining; anti-HMGB1 antibody (Abcam), anti-Ki67 antibody (Abcam), anti-CD31 antibody (Abcam), and anti-VEGF antibody (Abcam) were used as primary antibodies, and goat anti-rabbit IgG-H&L Alexa Fluor 488 and goat anti-rabbit IgG H&L Alexa Fluor 647 were used as secondary antibodies, followed by DAPI mounting.

Another series relates to CD31. The series is described as follows: Immunofluorescence staining of CD31 in GBM tissue. Format: in vivo, Balb/c nude mice. The settings on record: GBM mice, daily i.v., 14 days (control MFI 14.7 ± 1.4).
Description: as §1

Series [3] concerns orthotopic GBM (U87MG) mice model. As to the kind of experiment: TUNEL assay of GBM tissue. Type of series: in vivo, Balb/c nude mice. The conditions noted are these: daily i.v., 14 days (control 28.5 ± 4.8).
Description: as §1

For series [4] the following is noted: mouse, in vivo, iv.
The nature of series [5]: In vivo pharmacokinetics study. The conditions noted are these: mice, i.v.
[6] abbreviates: GL equivalent 50 mg kg^−1, plasma.

B1: Lf-GL: lactoferrin-glycyrrhizin conjugate with ligation ratio Lf:GL 1:10, used in further experiments (conjugate, UniProt P24627 20-708, looked up)
Lactotransferrin: APRKNVRWCTISQPEWFKCRRWQWRMKKLGAPSITCVRRAFALECIRAIAEKKADAVTLDGGMVFEAGRDPYKLRPVAAEIYGTKESPQTHYYAVAVVKKGSNFQLDQLQGRKSCHTGLGRSAGWIIPMGILRPYLSWTESLEPLQGAVAKFFSASCVPCIDRQAYPNLCQLCKGEGENQCACSSREPYFGYSGAFKCLQDGAGDVAFVKETTVFENLPEKADRDQYELLCLNNSRAPVDAFKECHLAQVPSHAVVARSVDGKEDLIWKLLSKAQEKFGKNKSRSFQLFGSPPGQRDLLFKDSALGFLRIPSKVDSALYLGSRYLTTLKNLRETAEEVKARYTRVVWCAVGPEEQKKCQQWSQQSGQNVTCATASTTDDCIVLVLKGEADALNLDGGYIYTAGKCGLVPVLAENRKSSKHSSLDCVLRPTEGYLAVAVVKKANEGLTWNSLKDKKSCHTAVDRTAGWNIPMGLIVNQTGSCAFDEFFSQSCAPGADPKSRLCALCAGDDQGLDKCVPNSKEKYYGYTGAFRCLAEDVGDVAFVKNDTVWENTNGESTADWAKNLNREDFRLLCLDGTRKPVTEAQSCHLAVAPNHAVVSRSDRAAHVKQVLLHQQALFGKNGKNCPDKFCLFKSETKNLLFNDNTECLAKLGGRPTYEEYLGTEYVTAIANLKKCSTSPLLEACAFLTR
modifications: glycyrrhizin conjugate
For the molecule B1, the “Annexin V (+)/PI (+) cell population” value with U87MG was 0.28%. For the same molecule, the “Decrease of sprouted area of the micro-vessel” value in the series on rat aortic rings was 80.2 ± 4.5%. The “Time up to which fluorescence signal was detected in the brain” value in series [1] (i.v. GL equivalent 50 mg kg^−1) is reported as “up to 60 min”. Also, the “Fluorescence intensity in the brain” value in series [1] (i.v. GL equivalent 50 mg kg^−1, 10 min after injection) is 15,234 I.U. Also, the “Accumulated amount higher than GL without Lf conjugation” value in [2] (brain/GBM accumulation) is recorded as “twofold”. Besides, the “GL concentration detected in brain homogenate” value in series [2] (orthotopic GBM mice, i.v. GL equivalent 50 mg kg^−1, 10 min after injection) is 19.3 ± 1.6 µg/mL. Besides, the “Mean fluorescence intensity (MFI) of HMGB1” value in the series with HMGB1 was 1.7 ± 1.0. For the same molecule, in the series with CD31, the “Decrease of MFI of CD31” value is on record as “sevenfold”. For the same molecule, the “TUNEL MFI” value in [3] is on record as 9.1 ± 0.9. For the same molecule, in series [4], the “Time after administration until cleared from / remaining in circulation” value turned out to be 720 min. Besides, the “T1/2, elimination half-life” value in series [4] (50 mg/kg) is 5.3 ± 0.4 min. For the same molecule, in series [5] (GL equivalent 50 mg kg^−1), the “Increase of AUClast versus free GL” value is given as “tenfold”. For the same molecule, in series [5] (setting [6]), the Cmax is listed as 270.98 ± 130.92 μg/㎖; the “MRT, mean retention time” value is listed as 3.4 ± 0.8 min; the Tmax is 1 min.
